Our source for the stoichiometry N values is publication doi:10.1101/2021.05.06.442885.

Usually stoichiometry N stands for the number of molecules, sites or subunits per partner or assembly.

This assay deals with human Xkr8 (hXkr8), from hXkr8-TH-mGFP after TEV cleavage (human) (UniProt Q9H6D3). Kind of assay: cryo-EM structure.
Sequence of UniProt Q9H6D3 (Q9H6D3 whole entry): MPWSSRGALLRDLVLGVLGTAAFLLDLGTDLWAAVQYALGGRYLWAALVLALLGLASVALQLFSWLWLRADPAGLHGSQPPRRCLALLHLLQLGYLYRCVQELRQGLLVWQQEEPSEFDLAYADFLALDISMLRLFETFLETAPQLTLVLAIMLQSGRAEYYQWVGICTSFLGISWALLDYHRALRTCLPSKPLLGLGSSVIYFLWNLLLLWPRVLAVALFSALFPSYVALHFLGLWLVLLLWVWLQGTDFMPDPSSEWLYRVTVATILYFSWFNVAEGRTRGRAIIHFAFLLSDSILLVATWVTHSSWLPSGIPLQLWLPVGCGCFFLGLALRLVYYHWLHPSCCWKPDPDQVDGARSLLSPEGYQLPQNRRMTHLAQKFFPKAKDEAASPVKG

“hBSGΔ (human basigin lacking Ig-like domain 1, N152Q/N186Q, C-terminal FLAG) (domain or fragment)” gave a stoichiometry N of 1.
